Experimental data from the nanobody polyreactivity screen of Harvey et al. (2022).

Assay: yeast display, Sf9 membrane polyspecificity reagent, FACS + sequencing; frameworks hold sequencing errors
Method in brief: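 Synthetic nanobody libraries on Saccharomyces cerevisiae BJ5465 were galactose-induced for 36–48 hours, stained 1 hour at 4 °C with 10% biotinylated, detergent-solubilized Sf9 membrane reagent and enriched on streptavidin microbeads. FACS then separated cells into low and high (top ~1%) gates by anti-HA (expression) and streptavidin (reagent binding) fluorescence. Genes were colony-PCR amplified, MiSeq 2 × 250 sequenced and CDR-length filtered. A clone's polyreactivity label is that of its gate of origin.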

| Sequence | polyreactivity (PSR sort gate) |
| --- | --- |
| QFQLVESGGGLVQAGGSLRLSCAASGRIFGVNAMGWYRPAPGKERELVAAISYRGGHTYADSVKGRFTISRDNAKNTVYLQMNSLKPEDTAVYYCAARNRSSTGLGSRYGYWGQGTQVTVSS | high polyreactivity |
| QVQLVESGGGLVQAGGSLRLSCAASGSTFYPYAMGWYRQAPGKERELVAAISSGGSTNYADSVKGRFTISRDNAKNTVYLQMNSLKPEDTAVYYCAAEDWSLYDYGDRLWYSPYYYWGQGTQVTVSS | high polyreactivity |
| QVQLVESGGGLVQAGASLRLSCAASGSTFPVYAMGWYRQAPGKERELVAAITGSGARTYYADSVKVRFTISRDNAKNTVYLQMNSLKPEDTAVYYCAKRTVIAVYGYPYRYGMNYWGQGTKVTVSS | high polyreactivity |
| QVQLVESGGGLVQAGGSLRLSCAASGLTFWAYTMGWYRQAPGKERELVAAITSSGGRTYYADSVKGRFTISRDNAKNTVYLQMNSLKPEDTAVYYCAALGGRYRASTYGYWGQGTQVTVSS | high polyreactivity |
| QVQLVESGGGLVQAGGSLRLSCAASGRIFGIYAMGWYRQAPGKERELVASITDGTITNYADSVKGRFTISRDNAKNTVYLQMNSLIPEDTAVYYCAAGTQAHAYVVRPIEMDYWGQGTQVTVSS | low polyreactivity |
| QVQLVESGGGLVQAGGSLRLSCAASGSIFDYYTMGWYRQAPGKERELVASITRDGTSTYYADSVKGRFTISRDNAKNTVYLQMNSLKPEDTAVYYCAAERYGFTYSFYYWGQGTQVTVSS | low polyreactivity |
| QVQLVESGGGLVQAGGSHRLRCAASGLIIGDYGMGWYRQAPGKERELVAAITDRGGTTYYADSVKGRFTISRDNAKNTVYFQMNSLKPEDTAVYYCIARQSDIFDYDYWGQGSQVTVSS | low polyreactivity |
| QVQLVESGGGLVQAGGSLRLSCAASGFTFRKYAMGWYRQAPGKESELVAAISWSGGSTYYADSVKGRFTISRDNAKNTVYLQMNSMKPEDTAVYYCAAPHWSPYDYWGQGTQVTVSS | high polyreactivity |
| QVQLVESGGGLVQAGGSLRLSCAASGFTFPYNAMGWYRQAPGKERELVAAISSTGGITYYADSVKGRFTISRDNAKNTVYLQLNSLKPEDTAVYYCGWYDYWGLGTQVTVSS | low polyreactivity |
| QVQLVESGGGLVQAGGSLRLSCADSGSTPVYAMGWYIQAPGKERELVAAIRRRASSTYYADSVKGRLTISRDNAKNTVYLQMNSLKPEDTAVYYCAVGRLNGVLLGYWGQGTQVTVSS | high polyreactivity |
| QVHIVESGGGLVQAGGSLRLSCADSGSIFLSNVMGSYRQAPGKERELVDDITRSGGSTYYADSVKGRFTISRDNAKNTVYLQMNSLKPEDTAVYYCNAYEYLSAGYDYWGQGTQVTVSS | low polyreactivity |
| QVQLVESGGGLVQAGGSLRLSCAASGRTFSGYAMGWYRQAPGKERELVAAITSSGSSTYYADSVKGRFTISRDKAKNTVYLQMNCLKPEDTAVYYCAATPQAHSERYYSQRKYDYWGQGTQVTVSS | low polyreactivity |
| QVQLVESGGGLVQAGGSLRLSCAASGRTFVYNAMGWYRQARGKEREFVAAISSGGGTNYADSVKGRFTISRDNAKNTVYLQMNSLQPEDTAVYYCAAGSVSIFRGYRDYYNPKEYDYCGQGTQVTVSS | low polyreactivity |
| QVQLVESGGGLVQAGGSLRLSCAASGSTFYAYAMGWYRQAPGKERELVAAIRISGTSTYYADSVKGRFTISRDNAKNTVYLQMNSLKPEDSAVYYCNTLATYVAHNDYWGQGTQVTVSS | high polyreactivity |
| QVQLVESGGGLVQAGGSLRLSCAASGGIFDTYAMGWYRQAPGKERELVAAISRRGGNTYYADSVKGRFTISRDNAKNTVYLQMNSLKPEDTAVYYCAAYYHGRMDYWGQGTQVTVSS | high polyreactivity |
| QVPRVESGGGLVQAGGSLRLSCAASGFTFRFYDMGWYRQARGNERELVAAISWSGTSTYYADSVKGRFTISRDNAKNTVYLQMNSLKPEETAVYYCAADIIGYEFDYWGQGTQVTVSS | high polyreactivity |
| QVQHVESGGGLVQAGRSLRLSCAATGRTFGSNAMGWYRQAPGKERELVAAISLRGGRTYYADSVKGRFTISRDNAKNTVYLQMNSLKPEDTAVYYCNAVHYLYGARSRLTYDYWGQGTQVTVSS | high polyreactivity |
